Changes are numbered by the printed parent chain.

Test [1] has as its target ZIKV subviral particles (SVPs, prM-E), strain H/PF/2013 (Zika virus H/PF/2013, UniProt A0A024B7W1). Put plainly: ELISA. A general note: An ELISA detects its analyte on a solid surface through an enzyme-linked reagent.
The target of test [2] is T1, ZIKV E protein domain III (DIII), strain H/PF/2013 (Zika virus H/PF/2013).
T1 chain: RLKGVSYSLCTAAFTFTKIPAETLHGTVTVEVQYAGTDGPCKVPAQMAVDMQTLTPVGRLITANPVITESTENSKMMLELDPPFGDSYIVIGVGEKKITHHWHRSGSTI
In words: cell-based or functional assay.

Test [3] has as its target T1, ZIKV E protein domain III (DIII), …. In words: BLI.
Test [4] addresses ZIKV E protein (recombinant, ectodomain, strain H/PF/2013) (Zika virus H/PF/2013, UniProt A0A024B7W1). Put plainly: ELISA.

Sequence of ZIKV E protein (recombinant, ectodomain, strain H/PF/2013) (A0A024B7W1 whole entry, looked up, the tested form may be a part): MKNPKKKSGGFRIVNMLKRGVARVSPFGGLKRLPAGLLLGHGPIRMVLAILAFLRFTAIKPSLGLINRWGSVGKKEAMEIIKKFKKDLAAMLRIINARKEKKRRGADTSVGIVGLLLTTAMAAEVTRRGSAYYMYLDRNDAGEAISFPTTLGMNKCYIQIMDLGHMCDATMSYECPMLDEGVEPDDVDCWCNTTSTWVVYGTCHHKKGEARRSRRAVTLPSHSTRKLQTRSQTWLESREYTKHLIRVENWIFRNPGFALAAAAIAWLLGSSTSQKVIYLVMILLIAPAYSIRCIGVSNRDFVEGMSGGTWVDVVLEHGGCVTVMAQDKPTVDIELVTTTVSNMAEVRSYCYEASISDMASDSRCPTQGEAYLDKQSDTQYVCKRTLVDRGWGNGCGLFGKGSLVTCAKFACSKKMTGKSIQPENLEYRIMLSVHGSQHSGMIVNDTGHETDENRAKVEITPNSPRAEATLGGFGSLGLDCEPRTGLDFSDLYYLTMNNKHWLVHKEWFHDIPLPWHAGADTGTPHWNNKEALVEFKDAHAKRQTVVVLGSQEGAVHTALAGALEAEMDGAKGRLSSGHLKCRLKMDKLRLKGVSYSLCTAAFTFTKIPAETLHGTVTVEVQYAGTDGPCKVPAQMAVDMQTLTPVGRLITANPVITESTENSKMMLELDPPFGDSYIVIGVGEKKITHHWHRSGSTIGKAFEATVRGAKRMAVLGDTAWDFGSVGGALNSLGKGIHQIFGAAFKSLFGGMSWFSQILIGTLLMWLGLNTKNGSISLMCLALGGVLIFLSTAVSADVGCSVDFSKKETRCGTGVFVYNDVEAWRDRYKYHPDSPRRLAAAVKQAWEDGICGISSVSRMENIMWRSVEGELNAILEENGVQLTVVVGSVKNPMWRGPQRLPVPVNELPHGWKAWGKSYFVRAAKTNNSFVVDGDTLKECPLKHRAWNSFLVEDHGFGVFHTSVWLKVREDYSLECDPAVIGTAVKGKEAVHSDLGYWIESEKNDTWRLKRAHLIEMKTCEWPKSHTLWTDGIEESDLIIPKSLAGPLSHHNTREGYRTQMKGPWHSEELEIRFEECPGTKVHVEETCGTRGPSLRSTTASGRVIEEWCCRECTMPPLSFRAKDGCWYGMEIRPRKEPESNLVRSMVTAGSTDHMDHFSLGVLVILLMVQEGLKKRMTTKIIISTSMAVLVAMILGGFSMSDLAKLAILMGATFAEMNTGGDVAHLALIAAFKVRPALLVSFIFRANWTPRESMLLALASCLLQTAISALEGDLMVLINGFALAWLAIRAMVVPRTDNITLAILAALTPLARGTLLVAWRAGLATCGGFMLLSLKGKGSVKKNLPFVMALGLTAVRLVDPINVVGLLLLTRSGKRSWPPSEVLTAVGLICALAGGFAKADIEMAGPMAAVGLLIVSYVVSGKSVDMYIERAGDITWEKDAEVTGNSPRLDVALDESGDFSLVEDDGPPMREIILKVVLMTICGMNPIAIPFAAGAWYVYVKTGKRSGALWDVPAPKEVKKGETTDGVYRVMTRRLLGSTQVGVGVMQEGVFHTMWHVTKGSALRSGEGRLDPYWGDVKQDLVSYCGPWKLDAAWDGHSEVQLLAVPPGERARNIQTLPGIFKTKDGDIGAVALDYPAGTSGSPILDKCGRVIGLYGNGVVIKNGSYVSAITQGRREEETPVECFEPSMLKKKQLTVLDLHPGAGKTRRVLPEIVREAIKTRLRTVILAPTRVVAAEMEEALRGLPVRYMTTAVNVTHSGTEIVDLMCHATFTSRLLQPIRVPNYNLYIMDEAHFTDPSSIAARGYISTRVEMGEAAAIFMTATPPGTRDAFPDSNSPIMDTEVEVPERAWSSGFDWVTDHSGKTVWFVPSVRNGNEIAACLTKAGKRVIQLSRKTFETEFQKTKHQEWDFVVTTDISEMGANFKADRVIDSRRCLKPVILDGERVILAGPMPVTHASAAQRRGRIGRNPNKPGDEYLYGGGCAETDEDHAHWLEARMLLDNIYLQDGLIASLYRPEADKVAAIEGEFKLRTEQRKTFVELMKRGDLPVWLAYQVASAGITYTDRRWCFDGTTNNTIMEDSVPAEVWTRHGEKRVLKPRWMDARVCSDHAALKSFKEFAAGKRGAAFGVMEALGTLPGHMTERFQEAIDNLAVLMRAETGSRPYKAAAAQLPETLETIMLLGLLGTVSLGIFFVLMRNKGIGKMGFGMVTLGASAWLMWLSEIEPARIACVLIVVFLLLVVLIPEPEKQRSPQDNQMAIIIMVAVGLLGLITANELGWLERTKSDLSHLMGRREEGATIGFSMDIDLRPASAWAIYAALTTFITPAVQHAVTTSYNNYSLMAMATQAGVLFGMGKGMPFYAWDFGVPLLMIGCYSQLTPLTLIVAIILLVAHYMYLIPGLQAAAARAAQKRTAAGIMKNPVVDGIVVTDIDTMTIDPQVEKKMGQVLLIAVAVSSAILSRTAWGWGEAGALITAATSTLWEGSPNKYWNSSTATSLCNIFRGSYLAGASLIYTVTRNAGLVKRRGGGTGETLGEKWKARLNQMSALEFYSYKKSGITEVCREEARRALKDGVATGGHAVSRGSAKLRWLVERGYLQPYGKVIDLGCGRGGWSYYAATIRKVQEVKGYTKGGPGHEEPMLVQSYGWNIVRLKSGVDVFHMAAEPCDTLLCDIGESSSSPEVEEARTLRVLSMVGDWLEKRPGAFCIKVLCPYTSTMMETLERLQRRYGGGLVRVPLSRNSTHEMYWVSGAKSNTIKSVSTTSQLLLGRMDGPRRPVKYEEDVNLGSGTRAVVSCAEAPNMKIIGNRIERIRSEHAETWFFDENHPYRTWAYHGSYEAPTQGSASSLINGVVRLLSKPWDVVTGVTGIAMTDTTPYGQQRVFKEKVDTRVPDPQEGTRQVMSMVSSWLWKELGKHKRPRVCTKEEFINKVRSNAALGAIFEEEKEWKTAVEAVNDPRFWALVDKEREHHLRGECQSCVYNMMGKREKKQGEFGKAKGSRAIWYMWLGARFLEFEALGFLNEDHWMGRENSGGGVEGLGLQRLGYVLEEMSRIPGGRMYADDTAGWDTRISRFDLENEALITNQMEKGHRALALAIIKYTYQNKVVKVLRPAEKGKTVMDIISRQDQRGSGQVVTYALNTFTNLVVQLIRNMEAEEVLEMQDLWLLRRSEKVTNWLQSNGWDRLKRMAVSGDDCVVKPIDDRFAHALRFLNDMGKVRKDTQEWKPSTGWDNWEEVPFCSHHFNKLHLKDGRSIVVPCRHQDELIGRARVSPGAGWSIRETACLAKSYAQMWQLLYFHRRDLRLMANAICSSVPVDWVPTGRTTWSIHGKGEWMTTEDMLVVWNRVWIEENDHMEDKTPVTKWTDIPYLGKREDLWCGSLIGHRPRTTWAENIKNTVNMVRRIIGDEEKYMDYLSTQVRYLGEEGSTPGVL

B1: ZV-54 mouse monoclonal antibody (antibody, V domains shown)
VH: QVQLQQSGVGLARPGTSVKLSCKASGYSFTTYGISWVTQRPGQGLEWIGVIYPRSNNTYYNERFRGKATLTADKSSSSAYLELRGLTAEDSAVYFCARENYGSVYWGQGTTLTVSS
VL: DIVMTQSQKFMSTSVGDRVTITCKASQSVGTAVAWYHQKPGQSPKLLIYSASNRYTGVPDRFTGSGSGTDFTLTITYMQSEDLADYFCQQFSNYPFTFGGGTKLEIK
The Kd is the concentration at which binding is half-saturated. Take B1: the binding result in test [1] is recorded as “binds”. The “FRNT50, focus reduction neutralization of ZIKV H/PF/2013 on Vero cells” value (shortened to “FRNT50, focus reduction neutralization”) in test [2] was 87 ng/mL. In test [3], the Kd is 7.9 ± 0.2 nM and the t1/2 is 33 min. Moreover, the binding result in test [4] was “binds”.

B2: ZV-67 mouse monoclonal antibody (antibody, V domains shown)
VH: B1 VH with V2A, V9T, T16A, S28T, T31S, P41A, N56G, R63K, L81M
VL: B1 VL with T20S, S28N, H37Q, T76S, Y77N, N93S, F96Y
Take B2: the “FRNT50, focus reduction neutralization” value in test [2] came to 143 ng/mL. In test [3], this molecule gave a Kd of 8.8 ± 1.7 nM and a t1/2 of 13.8 min.

B3: ZV-2 mouse monoclonal antibody (antibody, V domains shown)
VH: QVQLQESGAELMKPGASVKLSCKTSGYTFIGYWIEWLKQRPGHGLEWVGEIFPGSGRTKYNEKFKGRATFTADTSSNMAYMQLSSLTTEDSAIYYCARYYYGSYYALDYWGQGTSVTVSS
VL: DIVMTQSPSSLSVSAGEKVTLSCKSSQSLLHSGNQKNYLAWYQQKPGQAPKLLIYGASTRESGVPDRFTGSGSGTDFTLTISSVQAEDLAVYYCQNDHSYPLTFGAGTKLELK
In test [3], B3 gave a Kd of 266 ± 42 nM and a t1/2 of 0.3 min.

B4: ZV-48 mouse monoclonal antibody (antibody, V domains shown)
VH: QVQLQQPGAELLKPGASVKLSCKASGYSFSNYWMHWVKQRPGQGPEWIGMIHPNSGNTKYNEKFKNKATLTVDKSSSMVYMQLSSLTSEDSAVFYCARLGNDMDYWGQGTSVTVSS
VL: DIVMSQSPSSLAVSVGEKITMSCKSSQSLLYSNNEKNYLAWYQQKPGQSPKLLIYWASARDSGVPDRFTGSGSGTDFTLTISSVKAEDLAVFYCQQYYSYPYTFGGGTKLEIK
Turning to B4, the “FRNT50, focus reduction neutralization” value in test [2] came out at 485 ng/mL. In test [3], this molecule registered a Kd of 35 ± 0.8 nM and a t1/2 of 3.2 min. Further, the binding result in test [4] is recorded as “binds”.

Source of the values: article PMC4983199 (Cell, 2016).
